From patent US20230002480A1

Legend:
Experiment in all cases: cell-based or functional assay
[1] = target: HIV-1 Env of pseudovirus Q259.d2.17 (clade A) (HIV-1)
[2] = target: MuLV Env pseudovirus (negative control) (MuLV)
[3] = target: HIV-1 Env of pseudovirus AC10.0.29 (clade B) (HIV-1)
[4] = target: HIV-1 Env of pseudovirus X2088_c9 (clade G) (HIV-1)
[5] = target: HIV-1 Env of pseudovirus Ce1086_B2 (clade C, T/F) (HIV-1)
[6] = target: HIV-1 Env of pseudovirus X1254_c3 (clade G) (HIV-1)
[7] = target: HIV-1 Env of pseudovirus CNE20 (clade BC) (HIV-1)
[8] = target: HIV-1 Env of pseudovirus CAP210.2.00.E8 (clade C) (HIV-1)
[9] = target: HIV-1 Env of pseudovirus 62357_14_D3_4589 (clade B, T/F) (HIV-1)
[10] = target: HIV-1 Env of pseudovirus Du172.17 (clade C) (HIV-1)
[11] = target: HIV-1 Env of pseudovirus 620345.c01 (clade CRF01_AE) (HIV-1)
[12] = target: HIV-1 Env of pseudovirus Du422.1 (clade C) (HIV-1)
[13] = target: HIV-1 Env of pseudovirus PVO.4 (clade B) (HIV-1)
[14] = target: HIV-1 Env of pseudovirus T250-4 (clade CRF02_AG) (HIV-1)
[15] = target: HIV-1 Env of pseudovirus R1166.c01 (clade CRF01_AE) (HIV-1)
[16] = target: HIV-1 Env of pseudovirus 191955_A11 (clade A, T/F) (HIV-1)
[17] = target: HIV-1 Env of pseudovirus 6545.v4.c1 (HIV-1)
[18] = target: HIV-1 Env of pseudovirus 6952.v1.c20 (clade CD) (HIV-1)
[19] = target: HIV-1 Env of pseudovirus 3103.v3.c10 (clade ACD) (HIV-1)
[20] = target: HIV-1 Env of pseudovirus BJOX028000.10.3 (clade CRF01_AE, T/F) (HIV-1)
[21] = target: HIV-1 Env of pseudovirus 3016.v5.c45 (clade D) (HIV-1)
[22] = target: HIV-1 Env of pseudovirus Ce1172_H1 (clade C, T/F) (HIV-1)

## N49P7YTE (antibody)
[1]
  IC50, titer in TZM.bl cells: 5.34 µg/mL
  IC80, titer in TZM.bl cells: 44.1 µg/mL
  MPI: 82
[2]
  IC50, titer in TZM.bl cells: > 50 µg/mL
  IC80, titer in TZM.bl cells: > 50 µg/mL
  MPI: 4
[3]
  IC50, titer in TZM.bl cells: > 50 µg/mL
  IC80, titer in TZM.bl cells: > 50 µg/mL
  MPI: 28
[4]
  IC50, titer in TZM.bl cells: 0.329 µg/mL
  IC80, titer in TZM.bl cells: 1.06 µg/mL
  MPI: 100
[5]
  IC50, titer in TZM.bl cells: 0.113 µg/mL
  IC80, titer in TZM.bl cells: 0.53 µg/mL
  MPI: 99
[6]
  IC50, titer in TZM.bl cells: 26.2 µg/mL
  IC80, titer in TZM.bl cells: > 50 µg/mL
  MPI: 59
[7]
  IC50, titer in TZM.bl cells: 0.11 µg/mL
  IC80, titer in TZM.bl cells: 0.317 µg/mL
  MPI: 99
[8]
  IC50, titer in TZM.bl cells: 3.11 µg/mL
  IC80, titer in TZM.bl cells: 13.9 µg/mL
  MPI: 99
[9]
  IC50, titer in TZM.bl cells: 0.039 µg/mL
  IC80, titer in TZM.bl cells: 0.173 µg/mL
  MPI: 100
[10]
  IC50, titer in TZM.bl cells: 0.283 µg/mL
  IC80, titer in TZM.bl cells: 0.953 µg/mL
  MPI: 100
[11]
  IC50, titer in TZM.bl cells: > 50 µg/mL
  IC80, titer in TZM.bl cells: > 50 µg/mL
  MPI: 0
[12]
  IC50, titer in TZM.bl cells: 13.2 µg/mL
  IC80, titer in TZM.bl cells: > 50 µg/mL
  MPI: 76
[13]
  IC50, titer in TZM.bl cells: 0.088 µg/mL
  IC80, titer in TZM.bl cells: 0.394 µg/mL
  MPI: 100
[14]
  IC50, titer in TZM.bl cells: > 50 µg/mL
  IC80, titer in TZM.bl cells: > 50 µg/mL
  MPI: 43
[15]
  IC50, titer in TZM.bl cells: 0.232 µg/mL
  IC80, titer in TZM.bl cells: 0.782 µg/mL
  MPI: 100
[16]
  IC50, titer in TZM.bl cells: 39 µg/mL
  IC80, titer in TZM.bl cells: > 50 µg/mL
  MPI: 56
[17]
  IC50, titer in TZM.bl cells: > 50 µg/mL
  IC80, titer in TZM.bl cells: > 50 µg/mL
  MPI: 45
[18]
  IC50, titer in TZM.bl cells: > 50 µg/mL
  IC80, titer in TZM.bl cells: > 50 µg/mL
  MPI: 13
[19]
  IC50, titer in TZM.bl cells: 0.322 µg/mL
  IC80, titer in TZM.bl cells: 0.583 µg/mL
  MPI: 100
[20]
  IC50, titer in TZM.bl cells: 0.018 µg/mL
  IC80, titer in TZM.bl cells: 0.155 µg/mL
  MPI: 100
[21]
  IC50, titer in TZM.bl cells: 1.15 µg/mL
  IC80, titer in TZM.bl cells: 9.65 µg/mL
  MPI: 89
[22]
  IC50, titer in TZM.bl cells: > 50 µg/mL
  IC80, titer in TZM.bl cells: > 50 µg/mL
  MPI: 12

## N49P7-54TY (antibody)
[1]
  IC50, titer in TZM.bl cells: 0.132 µg/mL
  IC80, titer in TZM.bl cells: 1.13 µg/mL
  MPI: 95
[2]
  IC50, titer in TZM.bl cells: > 25 µg/mL
  IC80, titer in TZM.bl cells: > 25 µg/mL
  MPI: 0
[3]
  IC50, titer in TZM.bl cells: > 25 µg/mL
  IC80, titer in TZM.bl cells: > 25 µg/mL
  MPI: 40
[4]
  IC50, titer in TZM.bl cells: 0.172 µg/mL
  IC80, titer in TZM.bl cells: 0.572 µg/mL
  MPI: 100
[5]
  IC50, titer in TZM.bl cells: 0.067 µg/mL
  IC80, titer in TZM.bl cells: 0.339 µg/mL
  MPI: 100
[6]
  IC50, titer in TZM.bl cells: 0.145 µg/mL
  IC80, titer in TZM.bl cells: 0.599 µg/mL
  MPI: 100
[7]
  IC50, titer in TZM.bl cells: 0.046 µg/mL
  IC80, titer in TZM.bl cells: 0.16 µg/mL
  MPI: 100
[8]
  IC50, titer in TZM.bl cells: 0.691 µg/mL
  IC80, titer in TZM.bl cells: 3.33 µg/mL
  MPI: 97
[9]
  IC50, titer in TZM.bl cells: 0.055 µg/mL
  IC80, titer in TZM.bl cells: 0.192 µg/mL
  MPI: 100
[10]
  IC50, titer in TZM.bl cells: 0.124 µg/mL
  IC80, titer in TZM.bl cells: 0.529 µg/mL
  MPI: 100
[11]
  IC50, titer in TZM.bl cells: > 25 µg/mL
  IC80, titer in TZM.bl cells: > 25 µg/mL
  MPI: 0
[12]
  IC50, titer in TZM.bl cells: 0.402 µg/mL
  IC80, titer in TZM.bl cells: 2.02 µg/mL
  MPI: 96
[13]
  IC50, titer in TZM.bl cells: 0.079 µg/mL
  IC80, titer in TZM.bl cells: 0.314 µg/mL
  MPI: 100
[14]
  IC50, titer in TZM.bl cells: 1.02 µg/mL
  IC80, titer in TZM.bl cells: 19.6 µg/mL
  MPI: 83
[15]
  IC50, titer in TZM.bl cells: 0.131 µg/mL
  IC80, titer in TZM.bl cells: 0.47 µg/mL
  MPI: 100
[16]
  IC50, titer in TZM.bl cells: 3.04 µg/mL
  IC80, titer in TZM.bl cells: > 25 µg/mL
  MPI: 72
[17]
  IC50, titer in TZM.bl cells: 3.01 µg/mL
  IC80, titer in TZM.bl cells: > 25 µg/mL
  MPI: 74
[18]
  IC50, titer in TZM.bl cells: > 25 µg/mL
  IC80, titer in TZM.bl cells: > 25 µg/mL
  MPI: 20
[19]
  IC50, titer in TZM.bl cells: 0.151 µg/mL
  IC80, titer in TZM.bl cells: 0.55 µg/mL
  MPI: 100
[20]
  IC50, titer in TZM.bl cells: 0.009 µg/mL
  IC80, titer in TZM.bl cells: 0.044 µg/mL
  MPI: 100
[21]
  IC50, titer in TZM.bl cells: 0.206 µg/mL
  IC80, titer in TZM.bl cells: 1.91 µg/mL
  MPI: 92
[22]
  IC50, titer in TZM.bl cells: > 25 µg/mL
  IC80, titer in TZM.bl cells: > 25 µg/mL
  MPI: 23
